Among the data in article doi:10.1101/2021.07.07.451367 (bioRxiv, 2021) are koff values, retold here.

Usually koff stands for the rate constant with which the complex falls apart. Read a low koff as slow dissociation.

For this assay, the target named is T1, mNG::aPKC (C. elegans (endogenous in zygotes), UniProt Q19266 1-597).
T1 sequence (looked up): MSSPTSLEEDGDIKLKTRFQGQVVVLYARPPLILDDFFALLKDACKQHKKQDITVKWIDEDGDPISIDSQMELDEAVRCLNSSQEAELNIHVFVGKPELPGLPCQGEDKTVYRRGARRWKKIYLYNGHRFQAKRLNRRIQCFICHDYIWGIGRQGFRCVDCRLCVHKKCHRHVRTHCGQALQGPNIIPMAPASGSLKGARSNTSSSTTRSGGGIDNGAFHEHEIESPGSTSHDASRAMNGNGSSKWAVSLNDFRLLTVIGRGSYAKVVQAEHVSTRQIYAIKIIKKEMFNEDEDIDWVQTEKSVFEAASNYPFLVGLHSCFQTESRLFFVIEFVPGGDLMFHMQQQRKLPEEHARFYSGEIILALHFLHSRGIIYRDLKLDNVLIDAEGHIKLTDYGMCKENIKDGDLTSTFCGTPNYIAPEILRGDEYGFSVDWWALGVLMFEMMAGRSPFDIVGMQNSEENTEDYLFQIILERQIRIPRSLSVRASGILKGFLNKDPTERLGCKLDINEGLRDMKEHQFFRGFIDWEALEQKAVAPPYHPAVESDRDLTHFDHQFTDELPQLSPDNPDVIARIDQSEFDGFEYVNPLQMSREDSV
The assay can be described thus: single-cell single-molecule pull-down.

B1: PAR-6::HaloTag (natural protein, C. elegans (endogenous in zygotes), UniProt Q9NAN2 1-309, looked up)
chain: MSYNGSYHQNHHSTLQVKSKFDSEWRRFSIPMHSASGVSYDGFRSLVEKLHHLESVQFTLCYNSTGGDLLPITNDDNLRKSFESARPLLRLLIQRRGESWEEKYGYGTDSDKRWKGISSLMAQKPPKRSYSISNPEDFRQVSAIIDVDIVPEAHRRVRLCKHGQERPLGFYIRDGTSVRVTERGVVKVSGIFISRLVDGGLAESTGLLGVNDEVLEVNGIEVLGKTLDQVTDMMVANAHNLIITVKPANQRNTLSRGPSQQGTPNASEMSAATAAATGGIQRPMKMNGSSDGSYHPKQHDANDSDSGED
modifications: HaloTag labelled with HaloTag ligand dye JF646, JFX646 or JFX650
B1: the koff was 0.002 s⁻¹.
